One experiment concerns the target T1, Cyno IL-12 (cynomolgus monkey).
T1 chain 1: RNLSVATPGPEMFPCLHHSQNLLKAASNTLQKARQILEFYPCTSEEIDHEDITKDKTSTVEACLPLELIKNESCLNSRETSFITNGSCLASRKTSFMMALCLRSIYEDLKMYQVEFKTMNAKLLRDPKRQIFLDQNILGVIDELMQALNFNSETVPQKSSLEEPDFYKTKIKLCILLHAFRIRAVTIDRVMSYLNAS
T1 chain 2: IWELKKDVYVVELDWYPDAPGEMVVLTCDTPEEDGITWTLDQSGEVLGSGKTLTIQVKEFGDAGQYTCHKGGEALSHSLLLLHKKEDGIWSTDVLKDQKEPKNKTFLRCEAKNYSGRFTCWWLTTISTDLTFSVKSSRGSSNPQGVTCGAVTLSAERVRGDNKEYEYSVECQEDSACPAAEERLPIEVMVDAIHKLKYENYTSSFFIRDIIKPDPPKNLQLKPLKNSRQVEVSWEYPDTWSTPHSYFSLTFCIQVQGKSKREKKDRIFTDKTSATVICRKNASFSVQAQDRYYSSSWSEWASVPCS
The experiment can be described thus: cell-based or functional assay.

For experiment [1], the target named is T2, recombinant human IL-12 (human, UniProt P29459 23-219; P29460 23-328).
T2 sequence (looked up) 1: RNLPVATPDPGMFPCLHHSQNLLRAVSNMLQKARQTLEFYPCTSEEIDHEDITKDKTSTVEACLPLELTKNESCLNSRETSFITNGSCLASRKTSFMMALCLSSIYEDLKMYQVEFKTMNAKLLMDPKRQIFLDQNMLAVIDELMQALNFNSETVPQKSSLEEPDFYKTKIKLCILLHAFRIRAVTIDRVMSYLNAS
T2 sequence (looked up) 2: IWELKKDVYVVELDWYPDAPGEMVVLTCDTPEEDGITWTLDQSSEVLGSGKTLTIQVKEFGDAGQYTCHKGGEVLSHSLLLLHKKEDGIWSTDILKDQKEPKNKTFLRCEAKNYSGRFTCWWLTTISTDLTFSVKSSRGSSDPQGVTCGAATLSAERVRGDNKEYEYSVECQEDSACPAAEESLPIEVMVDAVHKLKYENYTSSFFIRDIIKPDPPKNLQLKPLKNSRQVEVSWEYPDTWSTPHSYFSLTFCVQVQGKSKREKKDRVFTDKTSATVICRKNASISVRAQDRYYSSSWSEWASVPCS
The experiment can be described thus: cell-based or functional assay.

Experiment [2] addresses T3, recombinant human IL-12 (human, UniProt P29459 23-219; P29460 23-328).
T3 construct: disulfide-linked p35/p40 heterodimer; also called hIL-12; rhIL-12
T3 sequence (looked up) 1: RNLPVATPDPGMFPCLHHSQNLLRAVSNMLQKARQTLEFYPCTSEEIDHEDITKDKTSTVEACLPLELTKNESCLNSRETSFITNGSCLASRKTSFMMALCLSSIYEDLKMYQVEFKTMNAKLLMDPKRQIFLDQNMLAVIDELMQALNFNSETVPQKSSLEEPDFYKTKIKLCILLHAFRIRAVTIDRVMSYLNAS
T3 sequence (looked up) 2: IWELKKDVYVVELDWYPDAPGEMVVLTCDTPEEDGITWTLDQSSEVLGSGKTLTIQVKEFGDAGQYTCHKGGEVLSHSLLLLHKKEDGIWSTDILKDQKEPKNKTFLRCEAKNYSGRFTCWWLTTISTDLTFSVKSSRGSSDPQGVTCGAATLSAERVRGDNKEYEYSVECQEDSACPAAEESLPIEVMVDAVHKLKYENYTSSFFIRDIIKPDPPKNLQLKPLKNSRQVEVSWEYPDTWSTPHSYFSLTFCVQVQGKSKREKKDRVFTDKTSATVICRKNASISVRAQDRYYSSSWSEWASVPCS
The experiment can be described thus: BIAcore SPR, immobilised IL-12. In general terms: In SPR one partner is held on a chip, and binding of the other changes the refractive index at the surface.

Experiment [3] has as its target T2, recombinant human IL-12. The experiment in a line: cell-based or functional assay. This is another data set of the same source.
The target of a further experiment is T4, Dog IL-12 (dog, UniProt Q28267 26-222; Q28268 23-329).
T4 sequence (looked up) 1: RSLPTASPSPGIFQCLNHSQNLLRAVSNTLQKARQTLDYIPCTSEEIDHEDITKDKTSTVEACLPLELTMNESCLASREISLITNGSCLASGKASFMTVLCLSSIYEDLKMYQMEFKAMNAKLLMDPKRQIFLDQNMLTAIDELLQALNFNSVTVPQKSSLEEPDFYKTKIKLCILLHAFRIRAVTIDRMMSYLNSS
T4 sequence (looked up) 2: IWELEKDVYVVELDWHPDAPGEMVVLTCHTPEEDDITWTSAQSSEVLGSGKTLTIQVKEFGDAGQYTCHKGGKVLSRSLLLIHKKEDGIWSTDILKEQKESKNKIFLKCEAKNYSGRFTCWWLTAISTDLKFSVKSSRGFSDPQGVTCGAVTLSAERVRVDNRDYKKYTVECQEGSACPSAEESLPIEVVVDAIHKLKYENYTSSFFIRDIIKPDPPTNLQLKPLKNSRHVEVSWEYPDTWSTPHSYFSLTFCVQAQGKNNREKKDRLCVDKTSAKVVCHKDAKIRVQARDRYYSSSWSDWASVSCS
The experiment can be described thus: cell-based or functional assay.

For the next experiment, the target named is T5, Baboon IL-12 (baboon).
T5 chain 1: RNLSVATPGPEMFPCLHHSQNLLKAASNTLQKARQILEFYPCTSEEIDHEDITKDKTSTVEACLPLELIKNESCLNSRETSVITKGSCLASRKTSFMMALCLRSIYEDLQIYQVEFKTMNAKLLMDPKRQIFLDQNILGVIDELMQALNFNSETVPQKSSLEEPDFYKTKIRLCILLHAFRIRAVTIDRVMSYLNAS
T5 chain 2: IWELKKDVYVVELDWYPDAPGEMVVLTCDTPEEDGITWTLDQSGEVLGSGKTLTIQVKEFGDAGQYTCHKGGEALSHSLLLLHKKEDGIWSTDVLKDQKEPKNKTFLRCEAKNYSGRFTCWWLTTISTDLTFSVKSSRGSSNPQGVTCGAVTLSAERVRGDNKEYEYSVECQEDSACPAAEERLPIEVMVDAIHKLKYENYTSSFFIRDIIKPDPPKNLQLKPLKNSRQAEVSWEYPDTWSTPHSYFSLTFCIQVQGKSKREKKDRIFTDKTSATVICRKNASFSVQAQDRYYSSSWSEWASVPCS
The experiment can be described thus: cell-based or functional assay.

A further experiment addresses T6, Rhesus IL-12 (rhesus monkey, UniProt P48091 23-219; P48095 23-328).
T6 sequence (looked up) 1: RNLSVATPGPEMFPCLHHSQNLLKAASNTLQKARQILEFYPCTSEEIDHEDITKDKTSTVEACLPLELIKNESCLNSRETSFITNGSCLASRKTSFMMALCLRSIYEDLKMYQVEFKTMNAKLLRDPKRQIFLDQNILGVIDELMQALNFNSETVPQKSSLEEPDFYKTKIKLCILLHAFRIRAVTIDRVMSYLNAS
T6 sequence (looked up) 2: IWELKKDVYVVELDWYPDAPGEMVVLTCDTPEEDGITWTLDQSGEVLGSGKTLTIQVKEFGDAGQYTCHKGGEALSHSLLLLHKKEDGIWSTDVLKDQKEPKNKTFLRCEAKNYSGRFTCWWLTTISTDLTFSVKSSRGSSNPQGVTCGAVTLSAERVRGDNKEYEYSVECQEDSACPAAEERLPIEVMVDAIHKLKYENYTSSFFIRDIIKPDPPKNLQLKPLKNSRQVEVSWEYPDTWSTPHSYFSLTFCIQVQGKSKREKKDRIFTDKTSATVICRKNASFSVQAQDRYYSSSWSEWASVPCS
The experiment can be described thus: cell-based or functional assay.

Experiment [4] addresses T2, recombinant human IL-12. The experiment can be described thus: cell-based or functional assay. The source holds these as a separate data set.

B1: Y61 IgG (antibody, V domains shown)
VH: QVQLVQSGGGVVQPGRSLRLSCAASGFTFSSYGMHWVRQAPGKGLEWVAFIRYDGSNKYYADSVKGRFTISRDNSKNTLYLQMKSLRAEDTAVYYCKTHGSHDNWGQGTMVTVSS
VL: SYVLTQPPSVSGTPGQRVTISCSGGRSWIGSNTVKWYQQLPGTAPKLLIYGNDQRPSGVPDRFSGSKSGTSASLAITGVQAEDEADYYCQSYDRGTHPALLFGTGTKVTVLG
With B1, the “IC50 (M), species cross reactivity bioassay” value was found to be 2.2e-10 M in the experiment with Cyno IL-12 and 1.7e-10 M with recombinant human IL-12 [1].

B2: 177-H10 (scFv, V domains shown)
VH: QVQLVQSGGGVVQPGRSLRLSCAASGFTFSSYGMHWVRQAPGKGLEWVAFIRYDGSNKYYADSVKGRFTISRDNSKNTLYLQMKSLRAEDTAVYYCKTHGSHDNWGQGTMVTVSS
VL: SYVLTQPPSVSGTPGQRVTISCSGGRSNIGSNTVKWYQQLPGTAPKLLIYGNDQRPSGVPDRFSGSKSGTSASLAITGVQAEDEADYYCQSYDRGTHPTMYFGTGTKVTVL
The term koff denotes the rate constant with which the complex falls apart. Turning to B2, the dissociation rate constant (koff) with recombinant human IL-12 [2] amounted to 0.344 s⁻¹.

B3: Y139 (scFv, V domains shown)
VH: QVQLVQSGGGVVQPGRSLRLSCAASGFTFSSYGMHWVRQAPGKGLEWVAFIRYDGSNKYYADSVKGRFTISRDNSKNTLYLQMKSLRAEDTAVYYCKTHGSHDNWGQGTMVTVSS
VL: SYVLTQPPSVSGTPGQRVTISCSGGRSNIGSNTVKWYQQLPGTAPKLLIYGNDQRPSGVPDRFSGSKSGTSASLAITGVQAEDEADYYCQSYDRGSHPALTFGTGTKVTVL
Take B3: in the experiment with recombinant human IL-12 [3], the “IFN gamma IC50” value was determined as 0.16 nM.

B4: J695 (Y61-L94Y- L50Y IgG*) (antibody, V domains shown)
VH: QVQLVESGGGVVQPGRSLRLSCAASGFTFSSYGMHWVRQAPGKGLEWVAFIRYDGSNKYYADSVKGRFTISRDNSKNTLYLQMNSLRAEDTAVYYCKTHGSHDNWGQGTMVTVSS
VL: QSVLTQPPSVSGAPGQRVTISCSGSRSNIGSNTVKWYQQLPGTAPKLLIYYNDQRPSGVPDRFSGSKSGTSASLAITGLQAEDEADYYCQSYDRYTHPALLFGTGTKVTVLG
Turning to B4, the “IC50 (M), species cross reactivity bioassay” value came to 3.5e-10 M with Dog IL-12; 1e-11 M with Cyno IL-12; 5e-12 M with recombinant human IL-12 [1]; 1.5e-11 M with Baboon IL-12; 1e-11 M with Rhesus IL-12. Also, the “PHA blast Assay IC50” value with recombinant human IL-12 [4] came out at 0.0058 nM.

The values above are taken from patent EP2168984B1 (Abbott GmbH & Co. KG, dated 2012).
